Measurements: US20060211041A1 (Astellas, published 2006)
Residue numbers refer to the chain shown, from its start. Each block holds one binder with its values, some of them ahead of it.

Assays:
[1] = target: T1, mouse AKBP2 over-expressed in NIH3T3 L1 fat cells from adenovirus vector AKBP2/pAdTrack-CMV
T1 chain: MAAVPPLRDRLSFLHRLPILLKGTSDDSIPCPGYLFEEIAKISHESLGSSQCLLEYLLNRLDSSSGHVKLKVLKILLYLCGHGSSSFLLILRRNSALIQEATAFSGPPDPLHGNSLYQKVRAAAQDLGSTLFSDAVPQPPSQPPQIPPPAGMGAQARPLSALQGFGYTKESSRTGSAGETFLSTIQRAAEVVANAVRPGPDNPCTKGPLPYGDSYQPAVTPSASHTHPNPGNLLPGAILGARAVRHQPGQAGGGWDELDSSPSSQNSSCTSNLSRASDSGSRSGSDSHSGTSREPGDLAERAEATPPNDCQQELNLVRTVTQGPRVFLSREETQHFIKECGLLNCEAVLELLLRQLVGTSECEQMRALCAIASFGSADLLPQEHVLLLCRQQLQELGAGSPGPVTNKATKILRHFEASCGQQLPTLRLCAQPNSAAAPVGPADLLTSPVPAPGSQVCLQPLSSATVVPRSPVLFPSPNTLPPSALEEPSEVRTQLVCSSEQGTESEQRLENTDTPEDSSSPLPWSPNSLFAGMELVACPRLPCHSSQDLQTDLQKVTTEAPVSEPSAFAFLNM

[2] = target: T2, mouse AKBP2 (Akt2 Binding Protein 2) fused to the GAL4 transcriptional activation domain (pACT2 library clone … (mouse, UniProt Q3U3N6 1-573)); test: yeast two hybrid, HIS3 (3AT resistance) and lacZ (β-galactosidase) reporters
T2 construct: Prey of the yeast two hybrid screen; also called mouse AKBP2 protein; not shown: limits and junction r
T2 sequence: T1 chain
Protocol: The aforementioned yeast strain MaV203 for two hybrid transformed by pDB-Akt2 was suspended in 400 ml of YPD liquid medium (DIFCO), cultured at 30° C. for about 6 hours until absorbance at a wave length of 590 nanometer became from 0.1 to 0.4, and then made into competent cells by the lithium acetate method, and the final amount was suspended in 1.0 ml of 0.1 M lithium-tris buffer. The cells were transformed with 20 μg of the mouse fat tissue derived cDNA library prepared in the aforementioned (3), and the cells were selected by culturing on a solid synthetic minimal medium (DISCO, 20% agarose) from which tryptophan and leucine as respective selection markers of pDB-Akt2 and the library had been deleted, thereby obtaining a transformant into which both plasmids were introduced. At the same time, in order to select a cell having an activated reporter gene HIS3 which is expressed when a fusion protein of the GAL4 DNA binding domain artificially expressed in the two hybrid system is linked to a fusion protein of the GAL4 transcriptional activation domain, the transformed cells were cultured at 30° C. for 5 days on the solid minimal medium (20% agarose) from which histidine was removed together with tryptophan and leucine and to which 20 mM of 3AT (3-amino-1,2,4-triazole; Sigma) as an inhibitor of the enzyme encoded by HIS3 was added. […]

[3] = target: T3, GST protein (protein of GST moiety alone, from pGEX-3X) (UniProt P08515 1-218 = GST); test: GST pull down of 35S-labelled in vitro translated human AKBP2, SDS-PAGE and autoradiography
T3 construct: Control of the pull down
Protocol: Using the GST fusion Akt2 protein (to be referred to as GST-Akt2 hereinafter) prepared in the aforementioned (2), the presence or absence of direct interaction between human AKBP2 protein and Akt2 protein was verified by the GST-pull down method (H. Matsushime et al., Jikken Kogaku, Vol. 113, No. 6, p. 528, 1994). Firstly, using 0.5 μg of the pcDNA-human AKBP2 prepared in the aforementioned Example 5 as the template, and using 40 μl of a TNT kit (TNTR Quick Coupled Transcription/Translation System; Promega) and 1.3 MBq of a radioisotope (redivue Pro-mix L-[³⁵S]; Amersham), radioisotope-labeled human AKBP2 protein was prepared by in vitro transcription and translation in accordance with the attached protocols. A 15 μl portion of this human AKBP2 protein preparation solution was mixed with 1 μg of the GST protein or GST-Akt2 purified on glutathione beads in the aforementioned (2) and shaken at 4° C. for 1 hour after adding 0.3 ml of Buffer A (50 mM Tris-HCl (pH 7.5), 10% glycerol, 120 mM NaCl, 1 mM EDTA, 0.1 mM EGTA, 0.5 mM PMSF, 0.5% NP-40). […] After repeating this operation 4 times, proteins in the precipitate were separated by SDS polyacrylamide gel electrophoresis in accordance with a conventionally known method, and the human AKBP2 protein was detected by autoradiography. As a result, a band which is not detected when the GST protein is mixed was detected when GST-Akt2 was mixed.

T3 sequence (P08515 whole entry): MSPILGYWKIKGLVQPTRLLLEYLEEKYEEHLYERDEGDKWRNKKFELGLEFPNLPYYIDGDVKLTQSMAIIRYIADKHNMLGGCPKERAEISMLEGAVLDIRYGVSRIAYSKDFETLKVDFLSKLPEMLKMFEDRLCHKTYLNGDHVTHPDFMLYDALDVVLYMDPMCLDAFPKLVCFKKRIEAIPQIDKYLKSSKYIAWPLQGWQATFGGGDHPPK

B1: Akt2 of NIH3T3 L1 fat cells (endogenous, immunoprecipitated with anti-Akt2 antibody) (protein)
chain: MNEVSVIKEGWLHKRGEYIKTWRPRYFLLKSDGSFIGYKERPEAPDQTLPPLNNFSVAECQLMKTERPRPNTFVIRCLQWTTVIERTFHVDSPDEREEWMRAIQMVANSLKQRGPGEDAMDYKCGSPSDSSTSEMMEVAVNKARAKVTMNDFDYLKLLGKGTFGKVILVREKATGRYYAMKILRKEVIIAKDEVAHTVTESRVLQNTRHPFLTALKYAFQTHDRLCFVMEYANGGELFFHLSRERVFTEDRARFYGAEIVSALEYLHSRDVVYRDIKLENLMLDKDGHIKITDFGLCKEGISDGATMKTFCGTPEYLAPEVLEDNDYGRAVDWWGLGVVMYEMMCGRLPFYNQDHERLFELILMEEIRFPRTLGPEAKSLLAGLLKKDPKQRLGGGPSDAKEVMEHRFFLSINWQDVVQKKLLPPFKPQVTSEVDTRYFDDEFTAQSITITPPDRYDSLDPLELDQRTHFPQFSYSASIRE
- phosphorylation of the 473rd serine of immunoprecipitated Akt2, western blotting with anti-phosphorylated serine473 antibody, 30 minutes of insulin stimulation [1]: degree of the phosphorylation acceleration was weakened in the cells infected with the AKBP2 virus than in the control virus-infected cells
- phosphorylation of the 473rd serine of immunoprecipitated Akt2, western blotting with anti-phosphorylated serine473 antibody, no stimulation [1]: the phosphorylated state at the time of no stimulation was reduced in the cells infected with the AKBP2 virus in comparison with the control virus-infected cells

- binding result [2]: binds
B2: human Akt2 fused to the GAL4 DNA binding region (expressed from pDB-Akt2 in yeast MaV203) (other, UniProt P31751 1-481, looked up)
chain: B1 chain with G114A, A119P, S133T, M135E, N141S, D250E, G374S, D460G, P461L
notes: mature; Bait of the yeast two hybrid screen; also called Akt2 (PKBβ); not shown: limits and junction residues not pri

B3: human AKBP2-V5-His 6 fusion protein (in vitro transcribed and translated from pcDNA-human AKBP2, 35S-labelled) (other, not shown: small tags and cut ends)
chain: MAAAPPLRDRLSFLHRLPILLKGTSDDDVPCPGYLFEEIAKISHESPGSSQCLLEYLLSRLHSSSGHGKLKVLKILLYLCSHGSSFFLLILKRNSAFIQEAAAFAGPPDPLHGNSLYQKVRAAAQDLGSTLFSDTVLPLAPSQPLGTPPATGMGSQARPHSTLQGFGYSKEHGRTGSAGEAFLSTIQKAAEVVASAMRPGPESPSTRRLLPRGDTYQPAMMPSASHGPPTLGNLLPGAIPGPRAVRHQPGQAGGGWDELDSGPSSQNSSQNSDLSRVSDSGSHSGSDSHSGASREPGDLAERVEVVALSDCQQELSLVRTVTRGPRAFLSREEAQHFIKACGLLNCEAVLQLLTCHLRGTSECTQLRALCAIASLGSSDLLPQEHILLRTRPWLQELSMGSPGPVTNKATKILRHFEASCGQLSPARGTSAEPGPTAALPGPSDLLTDAVPLPGSQVFLQPLSSTPVSSRSPAPSSGMPSSPVPTPPPDASPIPAPGDPSEAEARLAESRRWRPERIPGGTDSPKRGPSSCAWSRDSLFAGMELVACPRLVGAGAAAGESCPDAPRAPQTSSQRTAAKEPPGSEPSAFAFLNA
modifications: radioisotope-labelled (redivue Pro-mix L-[35S])
notes: also called human AKBP2 protein
- binding result [3]: no binding (tested: 1 µg of the GST protein)
